Results as given in patent US20060194739 (published 2006).
Non-standard residues stand in square brackets, D forms with d. No end group written: not given here. *: point of attachment. Trp(5-CN) = N#Cc1ccc2[nH]cc(C[C@H](N)C(=O)O)c2c1; Ac6c = NC1(C(=O)O)CCCCC1; Hexanoyl = CCCCCC(=O)*; Propionyl = CCC(=O)*; Ahx = NCCCCCC(=O)O

B1: IV-12-B (peptide)
chain: Ac-R[dY]Y[dR]WR-NH2
SMILES: CC(=O)N[C@@H](CCCNC(=N)N)C(=O)N[C@H](Cc1ccc(O)cc1)C(=O)N[C@@H](Cc1ccc(O)cc1)C(=O)N[C@H](CCCNC(=N)N)C(=O)N[C@@H](Cc1c[nH]c2ccccc12)C(=O)N[C@@H](CCCNC(=N)N)C(N)=O
B2: VII-4-B (peptide)
chain: [Ac6c]RYYRWR-NH2
modifications: N-terminus assumed
SMILES: N=C(N)NCCC[C@H](NC(=O)[C@H](Cc1c[nH]c2ccccc12)NC(=O)[C@H](CCCNC(=N)N)NC(=O)[C@H](Cc1ccc(O)cc1)NC(=O)[C@H](Cc1ccc(O)cc1)NC(=O)[C@H](CCCNC(=N)N)NC(=O)C1(N)CCCCC1)C(N)=O
B3: VII-55-A (peptide)
chain: Ac-RYY[Ahx]WR-NH2
SMILES: CC(=O)N[C@@H](CCCNC(=N)N)C(=O)N[C@@H](Cc1ccc(O)cc1)C(=O)N[C@@H](Cc1ccc(O)cc1)C(=O)NCCCCCC(=O)N[C@@H](Cc1c[nH]c2ccccc12)C(=O)N[C@@H](CCCNC(=N)N)C(N)=O
B4: VII-57-C (peptide)
chain: Ac-RYYRW[Ahx]-NH2
SMILES: CC(=O)N[C@@H](CCCNC(=N)N)C(=O)N[C@@H](Cc1ccc(O)cc1)C(=O)N[C@@H](Cc1ccc(O)cc1)C(=O)N[C@@H](CCCNC(=N)N)C(=O)N[C@@H](Cc1c[nH]c2ccccc12)C(=O)NCCCCCC(N)=O
B5: VII-51-A (peptide)
chain: Ac-RYYR[Trp(5-CN)]R-NH2
SMILES: CC(=O)N[C@@H](CCCNC(=N)N)C(=O)N[C@@H](Cc1ccc(O)cc1)C(=O)N[C@@H](Cc1ccc(O)cc1)C(=O)N[C@@H](CCCNC(=N)N)C(=O)N[C@@H](Cc1c[nH]c2ccc(C#N)cc12)C(=O)N[C@@H](CCCNC(=N)N)C(N)=O
B6: IV-41-B (peptide)
chain: Hexanoyl-RYYRAR-NH2
SMILES: CCCCCC(=O)N[C@@H](CCCNC(=N)N)C(=O)N[C@@H](Cc1ccc(O)cc1)C(=O)N[C@@H](Cc1ccc(O)cc1)C(=O)N[C@@H](CCCNC(=N)N)C(=O)N[C@@H](C)C(=O)N[C@@H](CCCNC(=N)N)C(N)=O
B7: IV-39-B (peptide)
chain: Hexanoyl-RYYAWR-NH2
SMILES: CCCCCC(=O)N[C@@H](CCCNC(=N)N)C(=O)N[C@@H](Cc1ccc(O)cc1)C(=O)N[C@@H](Cc1ccc(O)cc1)C(=O)N[C@@H](C)C(=O)N[C@@H](Cc1c[nH]c2ccccc12)C(=O)N[C@@H](CCCNC(=N)N)C(N)=O
B8: IV-21-C (peptide)
chain: Propionyl-AYYRWR-NH2
SMILES: CCC(=O)N[C@@H](C)C(=O)N[C@@H](Cc1ccc(O)cc1)C(=O)N[C@@H](Cc1ccc(O)cc1)C(=O)N[C@@H](CCCNC(=N)N)C(=O)N[C@@H](Cc1c[nH]c2ccccc12)C(=O)N[C@@H](CCCNC(=N)N)C(N)=O
B9: IV-29-B (peptide)
chain: Propionyl-RYYRAR-NH2
SMILES: CCC(=O)N[C@@H](CCCNC(=N)N)C(=O)N[C@@H](Cc1ccc(O)cc1)C(=O)N[C@@H](Cc1ccc(O)cc1)C(=O)N[C@@H](CCCNC(=N)N)C(=O)N[C@@H](C)C(=O)N[C@@H](CCCNC(=N)N)C(N)=O
B10: IV-23-B (peptide)
chain: Propionyl-RAYRWR-NH2
SMILES: CCC(=O)N[C@@H](CCCNC(=N)N)C(=O)N[C@@H](C)C(=O)N[C@@H](Cc1ccc(O)cc1)C(=O)N[C@@H](CCCNC(=N)N)C(=O)N[C@@H](Cc1c[nH]c2ccccc12)C(=O)N[C@@H](CCCNC(=N)N)C(N)=O
B11: IV-33-B (peptide)
chain: Hexanoyl-AYYRWR-NH2
SMILES: CCCCCC(=O)N[C@@H](C)C(=O)N[C@@H](Cc1ccc(O)cc1)C(=O)N[C@@H](Cc1ccc(O)cc1)C(=O)N[C@@H](CCCNC(=N)N)C(=O)N[C@@H](Cc1c[nH]c2ccccc12)C(=O)N[C@@H](CCCNC(=N)N)C(N)=O
B12: IV-35-B (peptide)
chain: Hexanoyl-RAYRWR-NH2
SMILES: CCCCCC(=O)N[C@@H](CCCNC(=N)N)C(=O)N[C@@H](C)C(=O)N[C@@H](Cc1ccc(O)cc1)C(=O)N[C@@H](CCCNC(=N)N)C(=O)N[C@@H](Cc1c[nH]c2ccccc12)C(=O)N[C@@H](CCCNC(=N)N)C(N)=O
B13: IV-27-B (peptide)
chain: Propionyl-RYYAWR-NH2
SMILES: CCC(=O)N[C@@H](CCCNC(=N)N)C(=O)N[C@@H](Cc1ccc(O)cc1)C(=O)N[C@@H](Cc1ccc(O)cc1)C(=O)N[C@@H](C)C(=O)N[C@@H](Cc1c[nH]c2ccccc12)C(=O)N[C@@H](CCCNC(=N)N)C(N)=O

biological target: ORL1 (UniProt P41146); assay: competition, [3H]nociceptin
Sequence (P41146 whole entry): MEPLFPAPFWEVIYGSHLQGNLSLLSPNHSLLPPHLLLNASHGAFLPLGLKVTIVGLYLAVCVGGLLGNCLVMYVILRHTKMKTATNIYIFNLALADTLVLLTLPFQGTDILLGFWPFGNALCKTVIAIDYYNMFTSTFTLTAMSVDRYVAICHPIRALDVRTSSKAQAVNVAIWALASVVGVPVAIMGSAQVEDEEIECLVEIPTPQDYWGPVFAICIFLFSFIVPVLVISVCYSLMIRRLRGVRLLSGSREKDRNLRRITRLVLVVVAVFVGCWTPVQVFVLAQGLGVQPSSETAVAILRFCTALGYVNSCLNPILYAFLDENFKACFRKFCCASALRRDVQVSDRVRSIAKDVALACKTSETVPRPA

Binder	IC50 [µM]
B1	1.15

biological target: ORL1 (UniProt P41146); assay: competition

Binder	Ki [µM]
B2	0.00925
B3	0.039
B4	0.0419
B5	0.0003

biological target: ORL1 (UniProt P41146); assay: competition; remark: another data set of the same source

Binder	IC50 [µM]
B6	0.71
B7	1
B8	1.78
B9	1.89
B10	0.182
B11	1.02
B12	0.113
B13	0.4
